Experiment [1] has as its target T1, HLA-A*0301 (purified HLA class I molecule) (human).
T1 construct: also called A3
The experiment is described as follows: inhibition of 125I probe peptide binding to purified HLA; ratio to standard peptide.

In experiment [2] the target is HLA-A*1101 (purified HLA class I molecule) (human). The description is as above.
The target of another experiment is T2, HLA-A*0201 (human).
T2 construct: also called HLA-A2.1
The experiment is described as follows: competition with 125I-labelled standard peptide 941.01 ([..]) on purified HLA, gel filtration. For orientation: In gel filtration, larger molecules generally elute earlier.

Experiment [3] addresses HLA-A*0301 (purified HLA class I molecule) (human). The experiment is described as follows: competition vs 125I standard peptide, purified HLA.
The target in experiment [4] is T3, HLA-A*1101 (purified HLA class I molecule) (human).
T3 construct: Purified MHC molecule
The experiment is described as follows: competition vs 125I standard peptide, purified HLA.

The results in this text go back to patent US20040018971A1 (published 2004).

With CLLDHVRENR (also called Her2/neu.805 (10-mer)) [HER2/neu peptide, position 805, 10 amino acids], the relative binding ratio in experiment [1] was 0.0003 ratio (IC50 standard / IC50 test); in experiment [2], 0.0001 ratio (IC50 standard / IC50 test). For the molecule GMSYLEDVRL (Synthetic peptide) [HER2/neu A02 supermotif peptide, position 832, 10 amino acids], the relative binding ratio with HLA-A*0201 was 0.0017 ratio (IC50 of standard peptide / IC50 of test peptide). On the same count and under the same terms, the result for HVRENRGRL (Synthetic peptide) [HER2/neu A02 supermotif peptide, position 809, 9 amino acids] reads 0.0002 ratio (IC50 of standard peptide / IC50 of test peptide). As to CTGTDMKLR (also called Her2/neu.26 (9-mer)) [HER2/neu peptide, position 26, 9 amino acids], the values for the relative binding ratio in experiment [1] and in experiment [2] were 0.0002 ratio (IC50 standard / IC50 test) and 0.0005 ratio (IC50 standard / IC50 test), respectively. Turning to GLPREYVNAR (also called Her2/neu.549 (10-mer)) [HER2/neu peptide, position 549, 10 amino acids], the relative binding ratio is 0.0002 ratio (IC50 standard / IC50 test) in experiment [1] and 0.0003 ratio (IC50 standard / IC50 test) in experiment [2]. In the case of KIRKYTMR [HER2/neu peptide, position 681, 8 amino acids], the relative binding ratio was 0.001 ratio (IC50 standard/IC50 test) in experiment [3] and 0.0004 ratio (IC50 standard/IC50 test) in experiment [4]. On to IISAVVGILL (Synthetic peptide) [HER2/neu A02 supermotif peptide, position 654, 10 amino acids], for which, in the experiment with HLA-A*0201, the relative binding ratio is 0.012 ratio (IC50 of standard peptide / IC50 of test peptide). On the same count and under the same terms, with GLRELQLRSL (Synthetic peptide) [HER2/neu A02 supermotif peptide, position 136, 10 amino acids] the figure was 0.0001 ratio (IC50 of standard peptide / IC50 of test peptide). Consider DLAARNVLVK (also called Her2/neu.845 (10-mer)) [HER2/neu peptide, position 845, 10 amino acids], for which the figures for the relative binding ratio in experiment [1] and in experiment [2] were 0.0018 ratio (IC50 standard / IC50 test) and 0.0007 ratio (IC50 standard / IC50 test), respectively. The matching figures for CAAGCTGPK (also called Her2/neu.240 (9-mer)) [HER2/neu peptide, position 240, 9 amino acids]: 0.0021 ratio (IC50 standard / IC50 test) and 0.0021 ratio (IC50 standard / IC50 test). For the molecule GISWLGLRSL (Synthetic peptide) [HER2/neu A02 supermotif peptide, position 449, 10 amino acids], the relative binding ratio in the experiment with HLA-A*0201 was 0.0003 ratio (IC50 of standard peptide / IC50 of test peptide). Regarding KIPVAIKVLR [HER2/neu peptide, position 747, 10 amino acids], the relative binding ratio is 0.0009 ratio (IC50 standard/IC50 test) in experiment [3] and 0.0099 ratio (IC50 standard/IC50 test) in experiment [4]. Take GVLIQRNPQL (Synthetic peptide) [HER2/neu A02 supermotif peptide, position 152, 10 amino acids]: the relative binding ratio with HLA-A*0201 is 0.0036 ratio (IC50 of standard peptide / IC50 of test peptide). Turning to GILIKRRQQK (also called Her2/neu.672 (10-mer)) [HER2/neu peptide, position 672, 10 amino acids], the relative binding ratio in experiment [1] is 0.015 ratio (IC50 standard / IC50 test); in experiment [2], 0.0014 ratio (IC50 standard / IC50 test). In the case of GIPAREIPDL (Synthetic peptide) [HER2/neu A02 supermotif peptide, position 925, 10 amino acids], the relative binding ratio in the experiment with HLA-A*0201 was 0.0001 ratio (IC50 of standard peptide / IC50 of test peptide). In the case of LSPGKNGVVK [HER2/neu peptide, position 1173, 10 amino acids], the relative binding ratio is -0.0002 ratio (IC50 standard/IC50 test) in experiment [3] and 0.0003 ratio (IC50 standard/IC50 test) in experiment [4]. Regarding GIWIPDGENV (Synthetic peptide) [HER2/neu A02 supermotif peptide, position 737, 10 amino acids], in the experiment with HLA-A*0201, the relative binding ratio is 0.0002 ratio (IC50 of standard peptide / IC50 of test peptide). For the molecule AMPNQAQMR (also called Her2/neu.705 (9-mer)) [HER2/neu peptide, position 705, 9 amino acids], the values for the relative binding ratio in experiment [1] and in experiment [2] were 0.0004 ratio (IC50 standard / IC50 test) and 0.0006 ratio (IC50 standard / IC50 test), respectively.

For the molecule ALESILRRR (also called Her2/neu.890 (9-mer)) [HER2/neu peptide, position 890, 9 amino acids], the results for the relative binding ratio in experiment [1] and in experiment [2] were 0.0013 ratio (IC50 standard / IC50 test) and 0.0006 ratio (IC50 standard / IC50 test), respectively. Regarding LIKRRQQKIR [HER2/neu peptide, position 674, 10 amino acids], the relative binding ratio in experiment [3] is 0.0002 ratio (IC50 standard/IC50 test); in experiment [4] it was 0.0001 ratio (IC50 standard/IC50 test).

Turning to GAYSLTLQGL (Synthetic peptide) [HER2/neu A02 supermotif peptide, position 439, 10 amino acids], the relative binding ratio with HLA-A*0201 was 0.003 ratio (IC50 of standard peptide / IC50 of test peptide). In the case of ETEYHADGGK (also called Her2/neu.874 (10-mer)) [HER2/neu peptide, position 874, 10 amino acids], the relative binding ratio in experiment [1] was 0.0003 ratio (IC50 standard / IC50 test); in experiment [2] it was 0.0001 ratio (IC50 standard / IC50 test). The matching figures for GLACHQLCAR (also called Her2/neu.508 (10-mer)) [HER2/neu peptide, position 508, 10 amino acids]: 0.011 ratio (IC50 standard / IC50 test) and 0.0001 ratio (IC50 standard / IC50 test). For GVGSPYVSRL (Synthetic peptide) [HER2/neu A02 supermotif peptide, position 776, 10 amino acids], the relative binding ratio with HLA-A*0201 is 0.0001 ratio (IC50 of standard peptide / IC50 of test peptide).

Regarding EVTAEDGTQR (also called Her2/neu.321 (10-mer)) [HER2/neu peptide, position 321, 10 amino acids], the relative binding ratio is 0.0002 ratio (IC50 standard / IC50 test) in experiment [1] and 0.0001 ratio (IC50 standard / IC50 test) in experiment [2]. The matching figures for GLGISWLGLR (also called Her2/neu.447 (10-mer)) [HER2/neu peptide, position 447, 10 amino acids]: 0.0037 ratio (IC50 standard / IC50 test) and 0.0001 ratio (IC50 standard / IC50 test). Regarding GICLTSTVQL (Synthetic peptide) [HER2/neu A02 supermotif peptide, position 787, 10 amino acids], in the experiment with HLA-A*0201, the relative binding ratio is 0.0004 ratio (IC50 of standard peptide / IC50 of test peptide).

With GLGISWLGL (Synthetic peptide) [HER2/neu A02 supermotif peptide, position 447, 9 amino acids], the relative binding ratio with HLA-A*0201 is 0.0018 ratio (IC50 of standard peptide / IC50 of test peptide). For the molecule LTLIDTNRSR [HER2/neu peptide, position 181, 10 amino acids], the relative binding ratio was 0.0002 ratio (IC50 standard/IC50 test) in experiment [3] and 0.0005 ratio (IC50 standard/IC50 test) in experiment [4]. The matching figures for HSCVDLDDK [HER2/neu peptide, position 632, 9 amino acids]: -0.0002 ratio (IC50 standard/IC50 test) and 0.0007 ratio (IC50 standard/IC50 test). The matching figures for GVGSPYVSR [HER2/neu peptide, position 776, 9 amino acids]: 0.001 ratio (IC50 standard/IC50 test) and 0.0066 ratio (IC50 standard/IC50 test).

Regarding DVRPQPPSPR (also called Her2/neu.1144 (10-mer)) [HER2/neu peptide, position 1144, 10 amino acids], the relative binding ratio was 0.0003 ratio (IC50 standard / IC50 test) in experiment [1] and 0.0001 ratio (IC50 standard / IC50 test) in experiment [2]. Turning to GILLVVVLGV (Synthetic peptide) [HER2/neu A02 supermotif peptide, position 660, 10 amino acids], the relative binding ratio in the experiment with HLA-A*0201 is 0.0007 ratio (IC50 of standard peptide / IC50 of test peptide). Still for that read-out and setting: the result for GICELHCPAL (Synthetic peptide) [HER2/neu A02 supermotif peptide, position 262, 10 amino acids] reads 0.0005 ratio (IC50 of standard peptide / IC50 of test peptide); that for HVKITDFGL (Synthetic peptide) [HER2/neu A02 supermotif peptide, position 858, 9 amino acids], 0.0002 ratio (IC50 of standard peptide / IC50 of test peptide). With HADGGKVPIK [HER2/neu peptide, position 878, 10 amino acids], the values for the relative binding ratio in experiment [3] and in experiment [4] were 0.0003 ratio (IC50 standard/IC50 test) and 0.0008 ratio (IC50 standard/IC50 test), respectively.

As for LALTLIDTNR [HER2/neu peptide, position 179, 10 amino acids], the relative binding ratio in experiment [3] was -0.0002 ratio (IC50 standard/IC50 test); in experiment [4], 0.0003 ratio (IC50 standard/IC50 test). For ALTLIDTNR (also called Her2/neu.180 (9-mer)) [HER2/neu peptide, position 180, 9 amino acids], the relative binding ratio in experiment [1] was 0.0004 ratio (IC50 standard / IC50 test); in experiment [2], 0.0005 ratio (IC50 standard / IC50 test). Regarding LACHQLCAR [HER2/neu peptide, position 509, 9 amino acids], the relative binding ratio was -0.0002 ratio (IC50 standard/IC50 test) in experiment [3] and 0.0003 ratio (IC50 standard/IC50 test) in experiment [4]. Consider GLGMEHLREV (Synthetic peptide) [HER2/neu A02 supermotif peptide, position 344, 10 amino acids], for which the relative binding ratio in the experiment with HLA-A*0201 is 0.0017 ratio (IC50 of standard peptide / IC50 of test peptide). For HADGGKVPI (Synthetic peptide) [HER2/neu A02 supermotif peptide, position 878, 9 amino acids], in the experiment with HLA-A*0201, the relative binding ratio is 0.0002 ratio (IC50 of standard peptide / IC50 of test peptide).
